Our source for the reduction of the donor (GFP-RTN1) fluorescence lifetime values is paper PMC6055799.

The target in the assay is GFP-RTN1 (reticulon RTN1 fused to GFP; FRET donor) (Arabidopsis). As to the kind of experiment: FRET or BRET; FRET-FLIM (two-photon microscope): donor GFP-RTN1 and RFP-tagged acceptor coinfiltrated into N. tabacum leaf epidermal cells, measured after 48 h in low-mobility ER continuous with the nuclear envelope; donor lifetime compared with GFP-RTN1 alone.

“AtLNP2-RFP (Arabidopsis Lunapark 2, splice variant AtLNP2.1, fused to RFP; FRET acceptor) (natural protein)” came in with a reduction of the donor (GFP-RTN1) fluorescence lifetime of 0.2 ns.

B1: AtLNP1-RFP (Arabidopsis Lunapark 1 fused to RFP; FRET acceptor) (natural protein)
chain: MAVGEKEHEGTVVESGGEKNDSAVVLSASGEKKTTKRKGLFSRLWNAIFRVRGDDFEKRLKNISKEEATVRNRMKRRSITRRNFIRNLIAFSVFFEVIAVSYAIMTTRDEDLDWKLRSFRILPMFLLPAVAFLLYSSLVGFWRMCDRRDQHTLEKLQAEMLGKINELKERTNYYITQQLIQRYDPDPAAKAAAATVLASKLGAESGLKVFVGDESQLEPTAGKNNAKHSGGLRNRKQTNTRGNSAETTPIHHSDNESNHSGTSERITGTEQNQQMVFEHYNPQEYAAHDGSWISRIAALLVGEDPSQSYALICGNCRMHNGLARKEDFPYITYYCPHCRALNKPKHSEEHSLIAPADTLPKVSLKPMESEVINSSSSTSERGNSPIPLLHTPEIVEEVPETAENETPN
For B1, the reduction of the donor (GFP-RTN1) fluorescence lifetime turned out to be 0.2 ns.
